{
  "source": "patent US20260297190",
  "about": "(published 2026)",
  "key": {"[1]": {"target": "human CD47-Fc (human)", "sequence (chain, as listed by the source)": "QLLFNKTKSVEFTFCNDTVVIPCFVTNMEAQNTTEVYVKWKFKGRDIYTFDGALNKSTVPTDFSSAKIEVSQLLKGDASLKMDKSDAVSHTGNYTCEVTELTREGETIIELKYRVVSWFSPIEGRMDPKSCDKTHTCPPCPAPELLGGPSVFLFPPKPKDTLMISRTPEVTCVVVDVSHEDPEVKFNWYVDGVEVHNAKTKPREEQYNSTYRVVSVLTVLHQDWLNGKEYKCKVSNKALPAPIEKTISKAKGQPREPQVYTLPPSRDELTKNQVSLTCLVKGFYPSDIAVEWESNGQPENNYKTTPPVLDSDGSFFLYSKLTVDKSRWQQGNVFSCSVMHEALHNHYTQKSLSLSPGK", "experiment": "SPR"}, "[2]": {"target": "CD47 on Raji cells (human, UniProt Q08722)", "sequence (Q08722 19-323)": "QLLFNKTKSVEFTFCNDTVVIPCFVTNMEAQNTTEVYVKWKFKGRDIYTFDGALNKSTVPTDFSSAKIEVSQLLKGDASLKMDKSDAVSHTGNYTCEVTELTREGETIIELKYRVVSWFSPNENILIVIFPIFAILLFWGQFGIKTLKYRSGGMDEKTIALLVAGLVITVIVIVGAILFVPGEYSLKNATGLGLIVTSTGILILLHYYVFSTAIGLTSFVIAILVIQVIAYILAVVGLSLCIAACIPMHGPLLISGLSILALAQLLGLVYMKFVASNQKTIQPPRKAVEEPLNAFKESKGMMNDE", "experiment": "FACS, Raji cells, 4C"}},
  "data": [
    {"binder": "DARPin protein #1 (designed binder) ALGKKLLQAAARGQDDEVRELLKAGADVNAKDLIGRTPLHLAASIGHLEIVEVLLKAGADVNAKDSRGWTPLHIAAVSGHLEIVEVLLKAGADVNAQDRAGATPADLAAAEGNEDIAEVLQKAA", "values": [
      {"measurement": "Kd", "setting": "[1]", "result": 0.328, "unit": "nM"},
      {"measurement": "EC50", "setting": "[2]", "result": 40.4, "unit": "nM"}
    ]},
    {"binder": "DARPin protein #4 (designed binder) DLGKKLLQAAARGQDDEVRELLKAGADVNAKDLKGRTPLHLAAATGHPEIVEVLLKAGADVNAKDQFGYTPLHIAAAWGHLEIVEVLLKAGADVNAQDQKGETPADLAAKEGHEDIAEVLQKAA", "values": [
      {"measurement": "Kd", "setting": "[1]", "result": 0.244, "unit": "nM"},
      {"measurement": "EC50", "setting": "[2]", "result": 74.7, "unit": "nM"}
    ]},
    {"binder": "DARPin protein #2 (designed binder) DLGIKLLHAAFQGQDDEVRILLAAGADVNAKDKVGRTPLHRAAQWGHLEIVEVLLKAGADVNAKDHVGWTPLHLAAWRGHLEIVEVLLKAGADVNAQDASGFTPADLAARQGHEDIAEVLQKAA", "values": [
      {"measurement": "Kd", "setting": "[1]", "result": 0.813, "unit": "nM"},
      {"measurement": "EC50", "setting": "[2]", "result": 20.9, "unit": "nM"}
    ]},
    {"binder": "DARPin protein #3 (designed binder) DLGRKLLQAAARGQDDEVRELLKAGADVNAKDLHGRTPLHLAAAIGHLEIVEVLLKAGADVNAKDFLGWTPLHIAAFRGHLEIVEVLLKAGADVNAQDEAGETPADLAAQEGHEDIAEVLQKAA", "values": [
      {"measurement": "Kd", "setting": "[1]", "result": 0.562, "unit": "nM"},
      {"measurement": "EC50", "setting": "[2]", "result": 58.4, "unit": "nM"}
    ]},
    {"binder": "DARPin protein #6 (designed binder) DLGRKLLQAAARGQDDEVRELLKAGADVNAKDLHGRTPLHLAAAIGHLEIVEVLLKAGADVNAKDVFGYTPLHIAAFRGHLEIVEVLLKAGADVNAQDERGETPADLAAEAGHEDIAEVLQKAA", "values": [
      {"measurement": "Kd", "setting": "[1]", "result": 0.24, "unit": "nM"},
      {"measurement": "EC50", "setting": "[2]", "result": 48, "unit": "nM"}
    ]},
    {"binder": "DARPin protein #5 (designed binder) DLGRKLLQAAARGQDDEVRELLKAGADVNAKDLLGRTPLHLAASIGHLEIVEVLLKAGADVNAKDERGFTPLHIAALQGHLEIVEVLLKAGADVNAQDLEGRTPADLAAEEGHEDIAEVLQKAA", "values": [
      {"measurement": "Kd", "setting": "[1]", "result": 0.552, "unit": "nM"},
      {"measurement": "EC50", "setting": "[2]", "result": 45.5, "unit": "nM"}
    ]},
    {"binder": "DARPin protein #8 (designed binder) DLGKKLLQAAARGQDDEVRELLKAGADVNAKDLLGRTPLHLAASIGHLEIVEVLLKAGADVNAKDSRGFTPLHLAAIIGHLEIVEVLLKAGADVNAQDLKGLTPADLAAAEGHEDIAEVLQKAA", "values": [
      {"measurement": "Kd", "setting": "[1]", "result": 0.102, "unit": "nM"},
      {"measurement": "EC50", "setting": "[2]", "result": 17.2, "unit": "nM"}
    ]},
    {"binder": "DARPin protein #7 (designed binder) DLGEKLLKAAARGQDDEVRELLKAGADVNAKDLLGRTPLHLAASIGHLEIVEVLLKAGADVNAKDERGYTPLHIAAIVGHLEIVEVLLKAGADVNAQDARGATPADLAAREGHEDIAEVLQKAA", "values": [
      {"measurement": "Kd", "setting": "[1]", "result": 0.352, "unit": "nM"},
      {"measurement": "EC50", "setting": "[2]", "result": 28.5, "unit": "nM"}
    ]}
  ]
}
